From patent US20070048860A1
One block for each substance: values may come before it.

Key:
Test in all cases: cell-based or functional assay
[1] = molecular target: murine LFA-3 (CD48) expressed on MC38 cells infected with rV-LFA-3 (murine) (UniProt P18181)
[2] = molecular target: murine ICAM-1 (CD54) expressed on MC38 cells infected with rV-ICAM-1 (murine) (UniProt P13597)
[3] = molecular target: murine B7-1 (CD80) expressed on MC38 cells infected with rV-B7-1 (murine) (UniProt Q00609)

reduction of the increased T-cell proliferation supported by MC38/LFA-3 (Con A, 3H-thymidine) [1]: 98%
Substance: Hamster anti-murine CD48 (BCM-1 clone HM48-1) (antibody)

reduction of the increased T-cell proliferation supported by MC38/ICAM-1 (Con A, 3H-thymidine) [2]: 88%
Substance: Hamster anti-murine CD54 (ICAM-1; clone 3E2) (antibody)

inhibition of the increased T-cell proliferation supported by MC38/B7-1 (Con A, 3H-thymidine) [3]: 83%
Substance: Hamster anti-murine CD80 (B7-1; clone 16-10A1) (antibody)
